Measurements: publication PMC2674214 (PLoS ONE, 2009)

Target: rHA of clade 1 H5N1 virus A/Viet Nam/1203/04 (Influenza A virus A/Viet Nam/1203/2004 …, UniProt Q5EP31, strain)
Assay: ELISA

B1: AVFluIgG03 (antibody, V domains shown)
VH: LESGGGLVQPGGSLRVSCTNSGFTFSDYAMSWVRQAPGKGLEWVSAISGNGGSSTYYADSVKGRFTISRDNSKNTMYLQMNSLRAEDTAVYYCVRDDSYDGGGQYGLHNWFDSWGQGTLVTV
VL: ELTQPPSVSGAPGQRVTISCTGSSSNIGAGYDVHWYQQLPGTAPKLLIYGNSNRPSGVPDRFSGSKSGTSASLAITGLQAEDEADYYCQSYDSSLVVFGGGTKLTVL
notes: also called rhAb AVFluIgG03; AVFluIg03; source: SF9 cells, purified on a Protein A column
  binding result: no binding
